From article doi:10.1101/2020.11.23.394270

Target: T1, human urotensin II receptor (hUT), stably expressed in HEK 293 cells (human) (UniProt Q9UKP6)
T1 sequence: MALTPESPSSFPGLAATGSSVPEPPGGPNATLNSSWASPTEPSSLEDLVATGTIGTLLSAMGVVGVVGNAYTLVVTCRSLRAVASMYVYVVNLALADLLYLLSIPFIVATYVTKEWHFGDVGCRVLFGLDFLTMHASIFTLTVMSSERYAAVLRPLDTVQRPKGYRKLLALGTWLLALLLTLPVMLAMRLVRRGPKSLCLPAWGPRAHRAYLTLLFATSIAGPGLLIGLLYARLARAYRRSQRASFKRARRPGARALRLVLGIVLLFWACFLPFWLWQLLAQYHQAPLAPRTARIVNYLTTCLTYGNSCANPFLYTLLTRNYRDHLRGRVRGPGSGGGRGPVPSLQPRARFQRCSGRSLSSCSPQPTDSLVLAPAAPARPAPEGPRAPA

Emax of β-arrestin 2 conformational change (BRET biosensor), HEK 293-hUT cells: 100%
Substance: human urotensin II (ligand)
